The target of experiment [1] is human desmin (assembled into filaments in vitro) (human) (UniProt P17661). As to the kind of experiment: low-speed sedimentation assay; desmin alone assembled at 37°C; 2,500 g, 10 min, 20°C; pellets only filaments associated with each other (filament-filament interactions); SDS-PAGE densitometry.
The target is the same in experiment [2]. In words: low-speed sedimentation assay; desmin alone assembled at 22°C; 2,500 g, 10 min, 20°C; pellets only filaments associated with each other (filament-filament interactions); SDS-PAGE densitometry.
The target is the same in experiment [3]. As to the kind of experiment: low-speed sedimentation assay; desmin alone assembled at 44°C; 2,500 g, 10 min, 20°C; pellets only filaments associated with each other (filament-filament interactions); SDS-PAGE densitometry.

Turning to “human desmin (assembled into filaments in vitro) (from UniProt P17661 1-470) (natural protein)”, the values for the % of desmin in the low-speed pellet (filament-filament interactions) in experiment [1], in experiment [2] and in experiment [3] were 45%, 24% and 61%, respectively.

Values taken from PMC3212511.
